# In patent US20160176953A1 (Regeneron, published 2016):
# Assays:
# Test in all cases: cell-based or functional assay
# [1] = molecular target: Hemagglutinin of H16-DE09 virus (Influenza A virus (H16-DE09))
# [2] = molecular target: Hemagglutinin of H9-RG26 virus (Influenza A virus (H9-RG26))
# [3] = molecular target: Hemagglutinin of H1-IVR148 virus (Influenza A virus (H1-IVR148))
# [4] = molecular target: Hemagglutinin of H13-MD77 virus (Influenza A virus (H13-MD77))
# [5] = molecular target: Hemagglutinin of H1-WS33 virus (Influenza A virus (H1-WS33))
# [6] = molecular target: Hemagglutinin of H1N1 A/California/07/2009 virus (Influenza A virus A/California/07/2009 …)
binder,measurement,setting,value
"H1H11729P (antibody, V domains shown) VH: QVQLVQSGAEVKKSGSSVKVSCKASGGTFSSYAISWVRQAPGQGLEWMGGIIPIFGTPSYAQKFQDRVTITTDESTSTVYMELSSLRSEDTAVYYCARQQPVYQYNMDVWGQGTTVTVSS VL: DIQMTQSPSSLSASVGDRVTITCRASQGIRNNLGWYQQKPLKAPKRLIYAASSLQSGVPSRFSGSGSGTEFTLTISSLQPEDFATYYCLQYNNYPWTFGQGTKVEIK","IC50 (nM), cell viability microneutralization assay (MDCK)",[1],21.6 nM
same,"IC50 (nM), cell viability microneutralization assay (MDCK)",[2],14.9 nM
same,"IC50 (nM), cell viability microneutralization assay (MDCK)",[3],130 nM
same,"IC50 (nM), cell viability microneutralization assay (MDCK)",[4],33.8 nM
same,"IC50 (nM), cell viability microneutralization assay (MDCK)",[5],2.47 nM
same,"IC50 (nM), cell viability microneutralization assay (MDCK)",[6],4.54 nM
"H2aM11829N (antibody, V domains shown) VH: QVHLVQSGPEVKKPGSSVKVSCKASGVTFISHAISWVRQAPGQGLEWVGGIIAIFGTTNYAQKFQGRVTVTTDKSTNTVYMELSRLRSEDTAIYYCARGETYYEGNFDFWGQGTLVTVSS VL: VIQMTQSPSSLSASVGDRVTITCRASQSVRSNLNWYQQTPGKAPRLLIYAASSLQSGVPSRFSGSGSGTDFTLTISSLQPEDFATYYCQQSYSTPPITFGQGTRLEIK","IC50 (nM), cell viability microneutralization assay (MDCK)",[1],7.39 nM
same,"IC50 (nM), cell viability microneutralization assay (MDCK)",[2],10.2 nM
same,"IC50 (nM), cell viability microneutralization assay (MDCK)",[3],48 nM
same,"IC50 (nM), cell viability microneutralization assay (MDCK)",[4],2.11 nM
same,"IC50 (nM), cell viability microneutralization assay (MDCK)",[5],1.68 nM
same,"IC50 (nM), cell viability microneutralization assay (MDCK)",[6],3.5 nM
